# Results as given in US4732933A, “Neocarzinostatin complexes, a method for producing the same, and an antitumor agent containing said complexes as an active component” (Kayaku Antibiotics Research Co., Ltd., priority 1982, dated 1988).
# Legend:
# [1] = tested on: normal fibroblasts of rabit; test: Cell toxicity to normal fibroblasts; type: cell-based; parameters: key to Cell toxicity to normal fibroblasts: +: Intensity of toxicity; -: No toxicity; details: for Cell toxicity to normal fibroblasts: judgement after 3 days
# From the text: Comparison of cell toxicity
# to normal fibroblasts of rabit*
# *Judgement after 3 days
# cancer VX-2 of liver = test: Tumor affinity in cancer VX-2 of liver after intravenous injection; type: in vivo, rabit
# From the text: Tumor affinity in cancer VX-2 of liver of
# rabit after intravenous injection of SMANX
# [2] = Solubility of SMANX in various solvents compared with NCS and starting copolymer (Table 1); type: physicochemical; details: concentration: 1 mg/ml
# Description: |(concentration: 1 mg/ml)
Compound,Cell toxicity to normal fibroblasts ([1]; 0.1 μg/ml),Cell toxicity to normal fibroblasts ([1]; 1.0 μg/ml),LD50 ([1]; footnote to Table 8 (Cf.)) [µg/mL],"Tumor affinity, distant site (normal liver) (cancer VX-2 of liver; 10 mg/kg, 90')","Tumor affinity, interior of tumor (cancer VX-2 of liver; 10 mg/kg, 90')","Tumor affinity, distant site (normal liver) (cancer VX-2 of liver; 15')","Tumor affinity, interior of tumor (cancer VX-2 of liver; 15')","Tumor affinity, distant site (normal liver) (cancer VX-2 of liver; 60')","Tumor affinity, interior of tumor (cancer VX-2 of liver; 60')",Solubility in 10 mM aqueous solution of sodium bicarbonate [2],Solubility in Acetone [2],Solubility in Dioxane [2],Solubility in Lipiodol [2],Solubility in Methanol [2],Solubility in Pyridine [2],Solubility in Water pH 5.0 ([2]; pH 5.0),Solubility in Water pH 8.0 ([2]; pH 8.0)
"CO[C@@]12[C@H](COC(N)=O)C3=C(C(=O)C(C)=C(N)C3=O)N1C[C@@H]1N[C@@H]12 [Mitomycin C, reference compound]",+,,,,,,,,,,,,,,,,
neocarzinostatin [NCS],-,+,1.0,0,0,0,0,0,0,soluble,insoluble,insoluble,insoluble,insoluble,insoluble,soluble,soluble
